In PMC7968656:

Molecular target: protrusion protein of OmRV-LZ (N-terminal part of P3, cleaved from the ORF1-encoded precursor) (Omono River virus strain LZ (OmRV-LZ))
Test: cryo-EM structure; sub-particle refinement of the protrusion extracted from the virus particles, capsid signal subtracted; first C1, then C5 symmetry; 4.10 Å

In the case of “protrusion protein of OmRV-LZ (N-terminal part of P3, cleaved from the ORF1-encoded precursor) (natural protein)”, the stoichiometry N is reported as 5.
